Measured values reported in publication PMC6997106, “The Trp triad within the V-domain of the receptor for advanced glycation end products modulates folding, stability and ligand binding” (Bioscience Reports, 2020).

B1: RAGE V-domain (residues 23-132), wild type (domain or fragment, human, UniProt Q15109 23-132, looked up)
chain: AQNITARIGEPLVLKCKGAPKKPPQRLEWKLNTGRTEAWKVLSPQGGGPWDSVARVLPNGSLFLPAVGIQDEGIFRCQAMNRNGKETKSNYRVRVYQIPGKPEIVDSASE
notes: receptor for advanced glycation end products (RAGE), human, V-domain, residues 23-132 of uniprot Q15109; Cloned into pET15b by NcoI and XhoI; also called WT; wild-type V-domain; source: E. coli Shuffle T7 Express, purified (HisTrap HP, HiTrap SP FF cation exchange)
B3: RAGE V-domain (residues 23-132) W61A (domain or fragment, human, UniProt Q15109 23-132, looked up)
chain: AQNITARIGEPLVLKCKGAPKKPPQRLEWKLNTGRTEAAKVLSPQGGGPWDSVARVLPNGSLFLPAVGIQDEGIFRCQAMNRNGKETKSNYRVRVYQIPGKPEIVDSASE
notes: RAGE, human, V-domain, residues 23-132 of uniprot Q15109; Same construct as m1 with the mutation; source: E. coli Shuffle T7 Express, purified (HisTrap HP, HiTrap SP FF cation exchange)
B4: RAGE V-domain (residues 23-132) W72A (domain or fragment, human, UniProt Q15109 23-132, looked up)
chain: AQNITARIGEPLVLKCKGAPKKPPQRLEWKLNTGRTEAWKVLSPQGGGPADSVARVLPNGSLFLPAVGIQDEGIFRCQAMNRNGKETKSNYRVRVYQIPGKPEIVDSASE
notes: as for B3
B5: Recombinant human S100B (natural protein)
chain: MSELEKAMVALIDVFHQYSGREGDKHKLKKSELKELINNELSHFLEEIKEQEVVDKVMETLDNDGDGECDFQEFMAFVAMVTTACHEFFEHE
notes: S100B, human, uniprot P04271; Homodimer in the crystal structure 5D7F; also called calcium-loaded S100B

How the values were obtained:
[1] = biological target: B5; test: tryptophan fluorescence lifetime; 1 µM V-domain, with S100B in the presence of 2 mM calcium; excitation 280 nm; amplitude weighted average lifetime τm; settings: both partners purified
[2] = biological target: B1; test: fluorescence polarisation; 1 µM S100B-FITC in 50 mM Tris, pH 7.0, 2 mM CaCl2 titrated with V-domain stock solutions; 1:1 RAGE:S100B model; apparent; settings: both partners purified
[3] = biological target: T1, RAGE V-domain (residues 23-132) W51A (human, UniProt Q15109 23-132, W51A); test: as above; settings: both partners purified
T1 construct: RAGE, human, V-domain, residues 23-132 of uniprot Q15109; Same construct as m1 with the mutation; source: E. coli Shuffle T7 Express, purified (HisTrap HP, HiTrap SP FF cation exchange)

[4] = biological target: B3; test: as above; settings: both partners purified
[5] = biological target: B4; test: as above; settings: both partners purified
[6] = biological target: T2, RAGE V-domain (residues 23-132) W51A/W61A (human, UniProt Q15109 23-132, W51A | W61A); test: as above; settings: both partners purified
T2 construct: RAGE, human, V-domain, residues 23-132 of uniprot Q15109; Same construct as m1 with the mutations; also called W51/W61; source: E. coli Shuffle T7 Express, purified (HisTrap HP, HiTrap SP FF cation exchange)

[7] = biological target: T3, RAGE V-domain (residues 23-132) W51A/W72A (human, UniProt Q15109 23-132, W51A | W72A); test: as above; settings: both partners purified
T3 construct: RAGE, human, V-domain, residues 23-132 of uniprot Q15109; Same construct as m1 with the mutations; source: E. coli Shuffle T7 Express, purified (HisTrap HP, HiTrap SP FF cation exchange)

[8] = biological target: T4, RAGE V-domain (residues 23-132) W61A/W72A (human, UniProt Q15109 23-132, W61A | W72A); test: as above; settings: both partners purified
T4 construct: RAGE, human, V-domain, residues 23-132 of uniprot Q15109; Same construct as m1 with the mutations; source: E. coli Shuffle T7 Express, purified (HisTrap HP, HiTrap SP FF cation exchange)

[9] = biological target: B1; test: steady-state tryptophan fluorescence; emission spectra of V-domains alone and as V-domain:S100B complexes; excitation at 295 nm; settings: both partners purified
[10] = biological target: T1, RAGE V-domain (residues 23-132) W51A; test: as above; settings: both partners purified
[11] = biological target: B3; test: as above; settings: both partners purified
[12] = biological target: B4; test: as above; settings: both partners purified
[13] = biological target: T2, RAGE V-domain (residues 23-132) …; test: as above; settings: both partners purified
[14] = biological target: T3, RAGE V-domain (residues 23-132) …; test: as above; settings: both partners purified
[15] = biological target: T4, RAGE V-domain (residues 23-132) …; test: as above; settings: both partners purified
[16] = biological target: the molecule itself; test: crystal structure; 2 mM S100B with 3 mM peptide W72, CaCl2 present; sitting drop, 0.1 M Na cacodylate pH 6.8, 22% PEG 3350, 5 mM CaCl2, 20°C
[17] = biological target: B5; test: as above; settings: both partners purified

B1 was tested, and the “Δτm (change of the average Trp fluorescence lifetime with S100B)” value [1] was -0.83 ns.

B2: FITC-labeled recombinant human S100B (natural protein)
chain: MSELEKAMVALIDVFHQYSGREGDKHKLKKSELKELINNELSHFLEEIKEQEVVDKVMETLDNDGDGECDFQEFMAFVAMVTTACHEFFEHE
modifications: fluorescein (FITC labeling kit, 5-fold excess of FITC over protein; sites not stated)
notes: S100B, human, uniprot P04271; the titrations were fitted with a 1:1 RAGE:S100B model; also called S100B-FITC; FITC-labeled S100B; source: labeled with an FITC labeling kit (Pierce/Thermo Fisher 53027)
B2 showed a Kd [2] of 2700 ± 300 nM, a Kd [3] of 480 ± 60 nM and a Kd [4] of 870 ± 40 nM. It also gave a Kd [5] of 1120 ± 1010 nM, a Kd [6] of 660 ± 120 nM and a Kd [7] of 460 ± 320 nM. For the same binder, the Kd [8] was 370 ± 90 nM.

B3 was tested, and the “Δτm (change of the average Trp fluorescence lifetime with S100B)” value [1] was -0.8 ns.

In the case of B4, the “Δτm (change of the average Trp fluorescence lifetime with S100B)” value [1] is reported as -1 ns.

B5: binds [9]; binds [10]; binds [11]. B5: binds [12]; binds [13]; binds [14]. B5: binds [15]; binds [16].

B6: RAGE-derived peptide W72 (RAGE residues 65-79) (peptide)
peptide: Ac-SPQGGGPWDSVARVL-NH2
notes: RAGE, human, residues 65-79; also called W72 peptide; source: synthetic peptide
B6: binds [17].
